Results as given in the Immune Epitope Database (IEDB).

Assays:
HLA-C*03:03 = test: IEDB peptide-MHC binding, purified MHC/direct/fluorescence; filed as Kd, often an IC50 or EC50 that approximates it; ≥ and ≤ were set here for values at or beyond the usual limits of such assays
HLA-A*01:01 = test: as above
HLA-A*02:01 [1] = test: as above
HLA-A*03:01 = test: as above
HLA-A*11:01 [2] = test: as above
HLA-A*24:03 = test: as above
HLA-A*26:01 = test: as above
HLA-A*31:01 = test: as above
HLA-A*69:01 = test: as above
HLA-B*07:02 = test: as above
HLA-B*08:01 [3] = test: as above
HLA-B*15:01 = test: as above
HLA-B*27:05 = test: as above
HLA-B*35:01 = test: as above
HLA-B*40:01 = test: as above
HLA-B*44:02 = test: as above
HLA-B*58:01 = test: as above
HLA-A*23:01 = test: as above
HLA-A*24:02 = test: as above; conditions: source organism: Amur virus
HLA-C*14:02 = test: as above; conditions: source organism: Mycobacterium tuberculosis str. Haarlem
HLA-C*15:02 = test: as above; conditions: source organism: Mycobacterium tuberculosis str. Haarlem
HLA-A*02:03 = test: as above; conditions: source organism: Vibrio cholerae O139
HLA-A*02:11 = test: as above; conditions: source organism: Vibrio cholerae O139
HLA-A*02:12 = test: as above
HLA-A*02:16 = test: as above; conditions: source organism: Vibrio cholerae O139
HLA-A*02:19 = test: as above
HLA-A*29:02 = test: as above; conditions: source organism: Vibrio cholerae O139
HLA-A*68:02 = test: as above
HLA-B*15:17 = test: as above; conditions: source organism: Vibrio cholerae O139
HLA-B*18:01 = test: as above
HLA-B*27:03 = test: as above
HLA-B*46:01 = test: as above
HLA-B*51:01 = test: as above
HLA-B*57:01 = test: as above
HLA-A*11:01 [4] = test: IEDB peptide-MHC binding, purified MHC/competitive/fluorescence; ≥ and ≤ were set here for values at or beyond the usual limits of such assays; conditions: source organism: Zaire ebolavirus
HLA-B*08:01 [5] = test: as above; conditions: source organism: Zaire ebolavirus
HLA-B*39:01 = test: IEDB peptide-MHC binding, purified MHC/direct/fluorescence; filed as Kd, often an IC50 or EC50 that approximates it; ≥ and ≤ were set here for values at or beyond the usual limits of such assays; conditions: source organism: Cryptosporidium parvum Iowa II
HLA-A*02:01 [6] = test: IEDB peptide-MHC binding, purified MHC/competitive/fluorescence; ≥ and ≤ were set here for values at or beyond the usual limits of such assays; conditions: source organism: Zaire ebolavirus
[7] = source organism: Giardia lamblia ATCC 50803
[8] = source organism: Escherichia coli O157:H7
[9] = source organism: Salmonella enterica subsp. enterica serovar Typhimurium
[10] = source organism: Yersinia pestis
[11] = source organism: Vibrio cholerae O139
[12] = source organism: Cryptosporidium parvum Iowa II
[13] = source organism: Vibrio cholerae

KLDSGAFTV
Kd (HLA-C*03:03; source organism: Mycobacterium tuberculosis str. Haarlem): ≥ 20000 nM

PTKCGENLY
Kd (HLA-A*01:01; [7]): 7.76 µM
Kd (HLA-A*02:01 [1]; [7]): ≥ 20 µM
Kd (HLA-A*03:01; [7]): ≥ 20 µM
Kd (HLA-A*11:01 [2]; [7]): ≥ 20 µM
Kd (HLA-A*24:03; [7]): ≥ 20 µM
Kd (HLA-A*26:01; [7]): ≥ 20 µM
Kd (HLA-A*31:01; [7]): ≥ 20 µM
Kd (HLA-A*69:01; [7]): 12.9 µM
Kd (HLA-B*07:02; [7]): ≥ 20 µM
Kd (HLA-B*08:01 [3]; [7]): ≥ 20 µM
Kd (HLA-B*15:01; [7]): 2360 nM
Kd (HLA-B*27:05; [7]): ≥ 20 µM
Kd (HLA-B*35:01; [7]): 5200 nM
Kd (HLA-B*40:01; [7]): ≥ 20 µM
Kd (HLA-B*44:02; [7]): ≥ 20 µM
Kd (HLA-B*58:01; [7]): ≥ 20 µM

VVPLYDTPL
Kd (HLA-A*01:01; [8]): ≥ 20 µM
Kd (HLA-A*02:01 [1]; [8]): ≥ 20 µM
Kd (HLA-A*03:01; [8]): ≥ 20 µM
Kd (HLA-A*11:01 [2]; [8]): ≥ 20 µM
Kd (HLA-A*24:03; [8]): ≥ 20 µM
Kd (HLA-A*26:01; [8]): ≥ 20 µM
Kd (HLA-A*31:01; [8]): ≥ 20 µM
Kd (HLA-B*07:02; [9]): 8.95 µM
Kd (HLA-B*08:01 [3]; [8]): ≥ 20 µM
Kd (HLA-B*15:01; [9]): 1000 nM
Kd (HLA-B*27:05; [8]): ≥ 20 µM
Kd (HLA-B*35:01; [9]): 315 nM
Kd (HLA-B*40:01; [8]): ≥ 20 µM
Kd (HLA-B*44:02; [8]): ≥ 20 µM
Kd (HLA-B*58:01; [8]): ≥ 20 µM

TMPELAWAV
Kd (HLA-A*01:01; [10]): ≥ 20 µM
Kd (HLA-A*02:01 [1]; [10]): 0.0158 µM
Kd (HLA-A*03:01; [10]): ≥ 20 µM
Kd (HLA-A*11:01 [2]; [10]): ≥ 20 µM
Kd (HLA-A*26:01; [10]): ≥ 20 µM
Kd (HLA-A*31:01; [10]): ≥ 20 µM
Kd (HLA-A*69:01; [10]): 0.0078 µM
Kd (HLA-B*07:02; [10]): ≥ 20 µM
Kd (HLA-B*08:01 [3]; [10]): 15 µM
Kd (HLA-B*15:01; [10]): ≥ 20000 nM
Kd (HLA-B*27:05; [10]): ≥ 20 µM
Kd (HLA-B*35:01; [10]): 420 nM
Kd (HLA-B*40:01; [10]): ≥ 20 µM
Kd (HLA-B*44:02; [10]): ≥ 20 µM
Kd (HLA-B*58:01; [10]): ≥ 20 µM

QYEKDPDEL
Kd (HLA-A*23:01; source organism: Amur virus): 11.5 µM
Kd (HLA-A*24:02): 4.65 µM
Kd (HLA-A*24:03; source organism: Amur virus): 13 µM

RYVGLYLPF
Kd (HLA-A*24:03; source organism: Mycobacterium tuberculosis): 0.0002 µM
Kd (HLA-C*14:02): ≤ 1 nM
Kd (HLA-C*15:02): ≥ 20 µM

EKDSNHNVL
Kd (HLA-A*02:01 [1]; [11]): ≥ 20 µM
Kd (HLA-A*02:03): ≥ 20 µM
Kd (HLA-A*02:11): ≥ 20 µM
Kd (HLA-A*02:12; [11]): ≥ 20 µM
Kd (HLA-A*02:16): ≥ 20 µM
Kd (HLA-A*02:19; [11]): ≥ 20 µM
Kd (HLA-A*03:01; [11]): ≥ 20 µM
Kd (HLA-A*23:01; [11]): ≥ 20 µM
Kd (HLA-A*24:03; [11]): ≥ 20 µM
Kd (HLA-A*26:01; [11]): ≥ 20 µM
Kd (HLA-A*29:02): ≥ 20 µM
Kd (HLA-A*68:02; [11]): ≥ 20 µM
Kd (HLA-A*69:01; [11]): ≥ 20 µM
Kd (HLA-B*15:01; [11]): ≥ 20000 nM
Kd (HLA-B*15:17): ≥ 20 µM
Kd (HLA-B*18:01; [11]): ≥ 20 µM
Kd (HLA-B*27:03; [11]): ≥ 20 µM
Kd (HLA-B*46:01; [11]): ≥ 20 µM
Kd (HLA-B*51:01; [11]): ≥ 20 µM
Kd (HLA-B*57:01; [11]): ≥ 20 µM

EVKKRDGVK
IC50 (HLA-A*11:01 [4]): 66.4 µM
IC50 (HLA-B*08:01 [5]): ≥ 211 µM

YLAKLFLDH
Kd (HLA-A*02:12; [12]): ≥ 20 µM
Kd (HLA-A*02:19; [12]): ≥ 20 µM
Kd (HLA-A*26:01; [12]): ≥ 20 µM
Kd (HLA-A*68:02; [12]): ≥ 20 µM
Kd (HLA-A*69:01; [12]): ≥ 20 µM
Kd (HLA-B*18:01; [12]): ≥ 20 µM
Kd (HLA-B*27:03; [12]): ≥ 20 µM
Kd (HLA-B*39:01): ≥ 20 µM
Kd (HLA-B*46:01; [12]): ≥ 20 µM
Kd (HLA-B*51:01; [12]): ≥ 20 µM
Kd (HLA-B*57:01; [12]): ≥ 20 µM

MAVGVVLAL
Kd (HLA-C*03:03; source organism: Mycobacterium tuberculosis variant bovis BCG str. Pasteur 1173P2): 24 nM

HILQKTERG
IC50 (HLA-A*02:01 [6]): ≥ 99.6 µM
IC50 (HLA-B*08:01 [5]): ≥ 365 µM

YHMMKDEPV
IC50 (HLA-A*02:01 [6]): 42.3 µM
IC50 (HLA-B*08:01 [5]): ≥ 178 µM

DTDISQLHH
Kd (HLA-A*01:01; [13]): 0.358 µM
Kd (HLA-A*02:01 [1]; [13]): ≥ 20 µM
Kd (HLA-A*03:01; [13]): ≥ 20 µM
Kd (HLA-A*11:01 [2]; [13]): ≥ 20 µM
Kd (HLA-A*24:03; [13]): ≥ 20 µM
Kd (HLA-A*26:01; [13]): ≥ 20 µM
Kd (HLA-A*31:01; [13]): ≥ 20 µM
Kd (HLA-A*69:01; [13]): ≥ 20 µM
Kd (HLA-B*07:02; [13]): ≥ 20 µM
Kd (HLA-B*08:01 [3]; [13]): ≥ 20 µM
Kd (HLA-B*15:01; [13]): ≥ 20000 nM
Kd (HLA-B*27:05; [13]): ≥ 20 µM
Kd (HLA-B*35:01; [13]): 542 nM
Kd (HLA-B*40:01; [13]): ≥ 20 µM
Kd (HLA-B*44:02; [13]): ≥ 20 µM
Kd (HLA-B*58:01; [13]): 2.68 µM

YFRNSGMTY
Kd (HLA-A*01:01; [13]): 1.46 µM
Kd (HLA-A*02:01 [1]; [13]): ≥ 20 µM
Kd (HLA-A*03:01; [13]): ≥ 20 µM
Kd (HLA-A*11:01 [2]; [13]): ≥ 20 µM
Kd (HLA-A*26:01; [13]): ≥ 20 µM
Kd (HLA-A*31:01; [13]): ≥ 20 µM
Kd (HLA-A*69:01; [13]): ≥ 20 µM
Kd (HLA-B*07:02; [13]): ≥ 20 µM
Kd (HLA-B*08:01 [3]; [13]): ≥ 20 µM
Kd (HLA-B*15:01; [13]): 85.3 nM
Kd (HLA-B*27:05; [13]): ≥ 20 µM
Kd (HLA-B*35:01; [13]): 110 nM
Kd (HLA-B*40:01; [13]): ≥ 20 µM
Kd (HLA-B*44:02; [13]): ≥ 20 µM
Kd (HLA-B*58:01; [13]): ≥ 20 µM
